Measurements reported in patent publication US20220064218A1 (Bicycle, published 2022).
Blank lines part the entries; values can stand above or below the binder they belong to. *1 amine or outer side, *2 acyl side, *3 side chain or, on linkers, in order; H or OH if unused. Bridges are numbered along the chain shown (N, C = ends). Where no end group is shown, it is not given here. TATA = O=C(CC[*:1])N1CN(C(=O)CC[*:2])CN(C(=O)CC[*:3])C1

Target: T1, human CD38 (human, UniProt P28907 43-300, limits assumed)
T1 construct: also called hCD38
T1 sequence (looked up): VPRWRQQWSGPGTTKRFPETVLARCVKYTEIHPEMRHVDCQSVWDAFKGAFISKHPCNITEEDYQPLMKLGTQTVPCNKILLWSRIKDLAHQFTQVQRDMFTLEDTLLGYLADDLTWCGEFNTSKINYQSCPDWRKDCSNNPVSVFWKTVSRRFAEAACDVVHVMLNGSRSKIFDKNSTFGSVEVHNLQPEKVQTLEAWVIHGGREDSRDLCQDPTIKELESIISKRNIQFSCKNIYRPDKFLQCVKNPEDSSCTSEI
Assay: fluorescence polarisation competition with the labelled tracer peptide

Ki: 316 nM
B1: 66-50-19-T02-N001 (peptide)
peptide: ACYWNPFTACYSCTEN
modifications: linker 2-10-13 via TATA (inferred)
notes: Synthetic bicyclic peptide cyclised with TATA; also called 66-50-19-T002-N001

Ki: 90 nM
B2: 66-50-16-T01-N001 (peptide)
peptide: ACYWNPFTACWSCEND
modifications: linker 2-10-13 via TATA (inferred)
notes: Synthetic bicyclic peptide cyclised with TATA
